B1: 7C3 HuHu: humanized anti-NTSR1 antibody, 7C3 HuVH (SEQ ID NO: 13) and 7C3 HuVL (SEQ ID NO: 14) (antibody, V domains shown)
VH: QVQLVQSGAEVKKPGASVKVSCKASGYTFTSSWIHWVRQAPGQGLEWMGQIRPNSGNTYYNEKFKVRVTMTRDTSTSTVYMELSSLRSEDTAVYYCARYYYGFDYWGQGTLVTVSS
VL: DIVMTQTPLSLSVTPGQPASISCRSSQSIVHSNGNTYLEWYLQKPGQSPQLLIYKVSNRFSGVPDRFSGSGSGTDFTLKISRVEAEDVGVYYCFQGSHLPWTFGQGTKVEIK
B2: 7C3 HdHd: humanized anti-NTSR1 antibody, 7C3 HdVH (SEQ ID NO: 11) and 7C3 HdVL (SEQ ID NO: 12) (antibody, V domains shown)
VH: EVQLVESGGGLVQPGGSLRLSCAASGYTFTSSWIHWVRQAPGKGLEWVAQIRPNSGNTYYNEKFKVRFTISRDDSKNTLYLQMNSLRAEDTAVYYCARYYYGFDYWGQGTLVTVSS
VL: DIQMTQSPSSLSASVGDRVTITCRSSQSIVHSNGNTYLEWYQQKPGKAPKLLIYKVSNRFSGVPSRFSGSGSGTDFTLTISSLQPEDFATYYCFQGSHLPWTFGQGTKVEIK
B3: 7C3 HuHd: humanized anti-NTSR1 antibody, 7C3 HuVH paired with 7C3 HdVL (antibody, V domains shown)
VH: B1 VH
VL: B2 VL
B4: 7C3 HdHu: humanized anti-NTSR1 antibody, presumably 7C3 HdVH paired with 7C3 HuVL (antibody, V domains shown)
VH: B2 VH
VL: B1 VL
B5: 7C3 MM: mouse-human chimera anti-NTSR1 antibody, m7C3 VH (SEQ ID NO: 7) and m7C3 VL (SEQ ID NO: 8) (antibody, V domains shown)
VH: QVQLQQPGSVLVRPGDSVMLSCKASGYTFTSSWIHWAKQRPGQGPEWIGQIRPNSGNTYYNEKFKVKATLTVDTSSSTAYVDLSSLTSEDSAVYYCARYYYGFDYWGQGTTVTVSS
VL: DVLMTQTPLSLPVSLGDQASISCRSSQSIVHSNGNTYLEWYLQKPGQSPKLLIYKVSNRFSGVPDRFSGSGSGTDFTLKISRVEAEDLGVYYCFQGSHLPWTFGGGTKLEIK

test system: NTSR1 linear L2-biotin protein; experiment: Binding affinity of the humanized antibodies by ELISA; set-up: species or system human; conditions: FIG. 4
Experimental: ELISA plates were coated with 1-2 μg/100 μL per well of NTSR1 linear L2-biotin protein. Wells were rinsed for 3 times with PBS and blocked with 300 μL of 5% MPBS per well for 2 hr at 37° C. After washing with PBS, wells were incubated with serial diluted NTSR1 antibodies in 5% MPBS for 1.5 hours at 37° C. The plates were washed and goat polyclonal anti-human IgG-HRP antibody (1:10,000) (JACKSON IMMUNORESEARCH®) was added into each well. The OD at 650 nm and at 450 nm was read. Readings were obtained by subtracting OD650 from OD450 and the binding affinities of antibodies were calculated by non-linear regression with Prism software (GRAPHPAD®).

Row | binding signal for NTSR1 in binding ELISA | Molecule
1 | good binding signal | B1
2 | much lower binding signals | B2
3 | good binding signal | B3
4 | much lower binding signals | B4

same assay, conditions: binding ELISA, non-linear regression

Row | Kd [nM] | Molecule
5 | 0.294 | B1
6 | 0.676 | B5

test system: NTSR1 expressing cells, FaDu; experiment: Cell-binding assay by FACS; set-up: species or system human; conditions: concentration of 1 μg/mL
Experimental: Anti-NTSR1 antibodies were used to detect cells that express NTSR1 on the cell surfaces, for example using FACS. NTSR1 expressing cells, FaDu, were harvested and re-suspended in 5% PBS/FBS buffer. The cells (1×10^5) were incubated with anti-NTSR1 antibody (1-10 μg/ml) or negative control, at 4° C. for 1 hr, and then stained with goat anti-human IgG FITC conjugate ( 1/1000) at 4° C. for 1 hr. For each assay, two additional controls were prepared; one without primary antibody and the other one with absence of any antibody. All treated samples were analyzed with FACSVERSE™ (BECTON DICKINSON®) and the results were processed by FACSUITE™ software (BECTON DICKINSON®).

Row | Molecule | binding to FaDu cells
7 | B1 | do not bind well
8 | B3 | do not bind well
9 | B5 | do not bind well

same assay, conditions: concentration of 10 μg/mL

Row | Molecule | binding to FaDu cells
10 | B1 | do not bind significantly
11 | B3 | do not bind significantly
12 | B5 | do not bind significantly
